Legend:
[1] = biological target: T1, recombinant furin (rFurin) (Homo sapiens, UniProt P09958); assay: In vitro furin cleavage assay; type: biochemical
T1 construct: purchased NEB
Experimental: CHO-FD11 cells stably expressing FGE-His6 or HT1080 cells were grown for 24 h, and cells and medium were harvested. For treatment with furin in vitro cell pellets were resuspended in HEPES pH 7.5 buffer containing 1 mM CaCl2 and 0.5% Triton X-100 and lysed in the absence of protease inhibitors by sonication on ice. Appropriate amounts of cell lysate and medium were incubated for 3 h at 25° C. with 4 units of furin (NEB) with or without 25 μM decanoyl-RVKR-CMK (Alexis biochemicals) as indicated in the figures. For in vivo treatment, HT1080 Tet-On cells were transiently transfected with pBI-FGE-HA and 4 h post-transfection, the medium was replenished with medium containing 20 ng/mL doxycycline and various concentrations of decanoyl-RVKR-CMK or only DMSO as a carrier control. The cells and medium were collected after 16 h of induction/treatment for further analysis. The samples were boiled in Laemmli buffer and analyzed by SDS-PAGE and western blotting with FGE antiserum.
In mammals, the proproteinconvertase family comprises nine enzymes that differ in their substrate specificity and tissue-specific expression and/or subcellular localization (17). Furin is the best characterized mammalian PC with a ubiquitous tissue distribution and it is the major convertase in the secretory pathway. To analyze the role of furin in the processing of FGE the inventors expressed FGE in cells that are deficient for furin. […] When cell homogenate and medium from CHO-FD11 cells stably expressing FGE-His were treated with commercially available recombinant furin (rFurin), almost half the amount of FGE was processed, as observed for both cells and medium (FIG. 12D). Using this in vitro furin cleavage assay, the inventors also examined whether endogenous intracellular FGE is susceptible to furin processing. Indeed, rFurin readily converted almost 90% of endogenous fl-FGE from untransfected HT1080 cells to the truncated form (FIG. 12E).
Although FGE is an ER resident protein, it lacks a canonical ER-retention motif. […] In this study, using the in vitro furin cleavage assay, the inventors assessed furin-mediated processing of the FGE-ERp44 covalent complex (FIG. 8). Homogenates, pre-treated with NEM (to prevent post-lysis disulfide shuffling), from HT1080 cells expressing either FGE alone or FGE plus myc-ERp44 together from a bi-directional promoter were incubated with rFurin and analyzed by SDS-PAGE under non-reducing conditions. Upon overexpression, intracellular FGE via its N-terminal cysteines (C50 and C52) forms covalently cross-bridged homodimers (FIG. 15, lane 1 and 2) and, additionally, FGE-ERp44 heterodimers when co-expressed with ERp44 (FIG. 15, lane 4 and 6) as previously observed (13). Removal of the N-terminus by furin cleavage should lead to a disappearance of the homo-/hetero-dimeric FGE forms, which serves as an indicator for accessibility of the furin cleavage motif in FGE.

[2] = system: cysteine-containing substrate peptide; assay: In vitro FGE activity assay with conditioned media from CHO-FD11 cells; type: biochemical; details: 5 mM GSH vs 2 mM DTT, pH 9.3, conditioned media
Experimental: FGE activity was assayed using conditioned media that contained either secreted fl-FGE (obtained from CHO-FD FGE-His6 cells) or Δ72-FGE (obtained from CHO-FD Tet-On cells after transient co-transfection with pBI-FGE-HA and pIRES-Furin constructs). After expression for 48 h at 1% or 2.5% FCS containing DMEM, the medium was collected and centrifuged at 500×g for 5 min. The supernatant was analyzed by SDS-PAGE and western blotting and aliquots were directly used for activity testing.
The activity assay was performed in triplicates with three sets of conditioned media at pH 9.3 under standard conditions as described earlier (4) with some modifications; no BSA was added to the reaction mixture and 2 mM DTT or 5 mM GSH were used as reducing agents.
The inventors have recently shown that the N-terminal part of FGE (residues 34-68) is essential to activate sulfatases in vivo (12). By contrast, the N-terminal extension was not required for in vitro FGly-generating activity of purified secreted Δ72-FGE. […] To assess the physiological consequence of the N-terminal truncation by furin on the function of FGE, the inventors analyzed the FGly-generating activity of the processed and the unprocessed forms of secreted FGE in the presence of glutathione (GSH), a physiological reductant, or DTT serving as a control. […]

T1 sequence (P09958 108-794): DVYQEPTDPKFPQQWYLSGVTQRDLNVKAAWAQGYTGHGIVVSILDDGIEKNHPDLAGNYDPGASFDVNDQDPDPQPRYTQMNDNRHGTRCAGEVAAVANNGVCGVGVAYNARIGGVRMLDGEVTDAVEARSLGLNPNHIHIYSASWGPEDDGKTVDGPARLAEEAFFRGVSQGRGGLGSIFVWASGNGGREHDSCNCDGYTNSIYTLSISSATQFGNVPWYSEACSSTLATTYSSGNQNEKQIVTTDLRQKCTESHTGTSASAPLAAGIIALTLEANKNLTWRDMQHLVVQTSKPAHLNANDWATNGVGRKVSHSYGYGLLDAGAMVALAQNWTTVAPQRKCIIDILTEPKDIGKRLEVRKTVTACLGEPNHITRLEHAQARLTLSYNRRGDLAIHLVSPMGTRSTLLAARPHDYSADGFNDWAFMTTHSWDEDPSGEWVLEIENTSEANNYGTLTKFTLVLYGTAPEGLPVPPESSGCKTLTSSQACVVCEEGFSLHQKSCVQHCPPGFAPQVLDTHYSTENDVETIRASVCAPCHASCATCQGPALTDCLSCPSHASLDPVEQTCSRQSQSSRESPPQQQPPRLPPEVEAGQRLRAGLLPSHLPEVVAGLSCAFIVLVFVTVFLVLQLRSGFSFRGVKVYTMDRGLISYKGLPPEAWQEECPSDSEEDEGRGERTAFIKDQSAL

B1: FGE: human wild type full length formylglycine generating enzyme with RYSR furin cleavage motif, SEQ ID NO:2 (protein)
chain: ADEFSQEAGTGAGAGSLAGSCGCGTPQRPGAHGSSAAAHRYSREANAPGPVPGERQLAHSKMVPIPAGVFTMGTDDPQIKQDGEAPARRVTIDAFYMDAYEVSNTEFEKFVNSTGYLTEAEKFGDSFVFEGMLSEQVKTNIQQAVAAAPWWLPVKGANWRHPEGPDSTILHRPDHPVLHVSWNDAVAYCTWAGKRLPTEAEWEYSCRGGLHNRLFPWGNKLQPKGQHYANIWQGEFPVTNTGEDGFQGTAPVDAFPPNGYGLYNIVGNAWEWTSDWWTVHHSVEETLNPKGPPSGKDRVKKGGSYMCHRSYCYRYRCAARSQNTPDSSASNLGFRCAADRLPTMDSGRGSHHHHHHH
modifications: cloned matured acitve full length FGE with 6x His tag on C-terminus
accessibility of the furin-cleavage site in FGE monomer and homodimer ([1]; NEM-treated HT1080 Tet-On lysates): accessible to furin | furin cleavage of FGE in complex with ERp44 ([1]; NEM-treated HT1080 Tet-On lysates co-expressing myc-ERp44): protected from furin cleavage | amount of FGE processed by rFurin ([1]; cell homogenate and medium from CHO-FD11 cells, 3 h 25° C.): almost half | endogenous fl-FGE converted to the truncated form by rFurin ([1]; lysate of untransfected HT1080 cells): ~90% | FGly-generating activity (% substrate turnover) in the presence of GSH normalized to that of DTT (100%) [2]: as active with GSH as with DTT

From patent US20150141617A1, “PRODUCTION AND PURIFICATION OF ACTIVE EUKARYOTIC FORMYLGLYCINEGENERATING ENZYME (FGE) VARIANTS” (Universität Bielefeld, priority 2013, published 2015)
